B1: Azoarcus group I ribozyme (parent)
chain: GUGCCUUGCGCCGGGAAACCACGCAAGGGAUGGUGUCAAAUUCGGCGAAACCUAAGCGCCCGCCCGGGCGUAUGGCAACGCCGAGCCAAGCUUCGGCGCCUGCGCCGAUGAAGGUGUAGAGACUAGACGGCACCCACCUAAGGCAAACGCUAUGGUGAAGGCAUAGUCCAGGGAGUGGCGAAAGUCACACAAACCGG

Variants of: B1
Assay: reverse-splicing fitness (ratio to wild type); higher = more active; in vitro selection; Mg2+ level not given
Method in brief: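 An in vitro group I ribozyme library with randomized positions was T7-transcribed and gel-purified. In triplicate, 10 pmol RNA in EPPS pH 7.5 was reacted with 50 pmoles of a 30-nt RNA substrate for 1 h at 37 °C across several added MgCl2 levels (1–48 mM), then stopped with EDTA. Products were reverse transcribed from a substrate-complementary primer, PCR-amplified and sequenced (HiSeq 4000). Fitness is a variant's read proportion after selection over that before, normalised to wild type.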

Variant	reverse-splicing fitness
C82G A111U U176C	0.259
C82G A111U U176G	0.0695
C82G A111U U176A	0.214
C82G A120G A145C C150A C169U U176C	0.0106
C82G A120G A145C C150A C169U U176G	0.00463
C82G A120G A145C C150A C169U U176A	0.0196
C82G A120C C150G C169G U176G	0.00538
C82G A120C C150G C169G U176C	0.00574
C82G A120C C150G C169G U176A	0.0067
C82G A120C A145G C150A C169A	0.0104
C82G A120C A145G C150A C169G	0.00895
C82G A120C A145G C150A C169U	0.0126
C82G A120C A145U C150U C169A U176C	0.00984
C82G A120C A145U C150U C169A U176A	0.015
C82G A120C A145U C150U C169A U176G	0.00538
C82G A120C C150U U176A	0.0429
C82G A120C C150U U176C	0.0574
C82G A120C C150U U176G	0.0136
C82G A120C U176A	0.0764
C82G A120C U176C	0.107
C82G A120C U176G	0.0151

Variant	reverse-splicing fitness
C82G A120C A145C C169A U176A	0.0137
C82G A120C A145C C169A U176G	0.00378
C82G A120C A145C C169A U176C	0.0062
C82G A120C A145U C169U U176G	0.00344
C82G A120C A145U C169U U176C	0.0154
C82G A120C A145U C169U U176A	0.0158
C82G A120G A145C C150G C169G U176G	0.00412
C82G A120G A145C C150G C169G U176C	0.00761
C82G A120G A145C C150G C169G U176A	0.00772
C82G A120G A145C U176C	0.0158
C82G A120G A145C U176G	0.00484
C82G A120G A145C U176A	0.0133
C82G A120C A145C U176G	0.0157
C82G A120C A145C U176C	0.0842
C82G A120C A145C U176A	0.0678
C82G A120C A145G C150A C169G U176A	0.0184
C82G A120C A145G C150A C169G U176G	0.0054
C82G A120C A145G C150A C169G U176C	0.0256
C82G A120C A145C C150U C169G U176G	0.00532
C82G A120C A145C C150U C169G U176C	0.013
C82G A120C A145C C150U C169G U176A	0.0259

Variant	reverse-splicing fitness
C82G A120C C169A U176A	0.0185
C82G A120C C169A U176C	0.0179
C82G A120C C169A U176G	0.00393
C82G A120C A145U C150U C169U U176G	0.00456
C82G A120C A145U C150U C169U U176C	0.0148
C82G A120C A145U C150U C169U U176A	0.0152
C82G A120C A145U C150U U176A	0.0489
C82G A120C A145U C150U U176G	0.0119
C82G A120C A145U C150U U176C	0.0672
C82G A120C A145G C150U U176C	0.0797
C82G A120C A145G C150U U176G	0.0154
C82G A120C A145G C150U U176A	0.0566
C82G A120C A145G C150G C169G	0.00813
C82G A120C A145G C150G C169U	0.0121
C82G A120C A145G C150G C169A	0.0104
C82G A120C A145C C150G	0.0227
C82G A120C A145C C150U	0.0403
C82G A120C A145C C150A	0.0129
C82G A120C C150G C169U	0.0121
C82G A120C C150G C169G	0.00797
C82G A120C C150G C169A	0.00942

Variant	reverse-splicing fitness
C82G A120C C150A U176C	0.0287
C82G A120C C150A U176A	0.0182
C82G A120C C150A U176G	0.0105
C82G A120C A145U C150A C169U U176A	0.0151
C82G A120C A145U C150A C169U U176C	0.013
C82G A120C A145U C150A C169U U176G	0.00492
C82G A120C A145G C150A C169U U176A	0.0145
C82G A120C A145G C150A C169U U176G	0.00589
C82G A120C A145G C150A C169U U176C	0.0165
C82G A120G A145G C150A C169A	0.0126
C82G A120C A145C C150U C169U U176A	0.0146
C82G A120C A145C C150U C169U U176C	0.00971
C82G A120C A145C C150U C169U U176G	0.00439
C82G A120C C150A C169A U176A	0.0216
C82G A120C C150A C169A U176G	0.00601
C82G A120C C150A C169A U176C	0.0213
C82G A120C A145C C150G C169U U176C	0.0116
C82G A120C A145C C150G C169U U176A	0.00765
C82G A120C A145C C150G C169U U176G	0.00406
C82G A120C A145U C150G	0.0201
